Patent US20230295310A1 (ABCELLERA BIOLOGICS, published 2023)

Target: EGFR on HeLa cells (UniProt P00533 25-1210, limits assumed)
Assay: cell-based or functional assay

| Binder | Max killing % [%] | X… HeLa EC50 [nM] |
| --- | --- | --- |
| GOMP001_bsAb_015 (bispecific antibody, human IgG1, kappa, L234A L235A) heavy 1: QVQLVQSGAEVKKPGASVKVSCKASGYTFTSHWMHWVRKAPGQGLEWIGEFNPSNGRTNYNEEFKSKATMTVDTSTNTAYMELSSLRSEDTAVYYCASRDYDYDGRYFDYWGQGTLVTVSSASTKGPSVFPLAPSSKSTSGGTAALGCLVADYFPEPVTVSWNSGALTSGVHTFPAVLQSSGLYSLSSVVTVPSSSLGTQTYICNVNHKPSNTKVDEKVEPKSCDKTHTCPPCPAPEAAGGPSVFLFPPKPKDTLMISRTPEVTCVVVDVSHEDPEVKFNWYVDGVEVHNAKTKPREEQYNSTYRVVSVLTVLHQDWLNGKEYKCKVSNKALPAPIEKTISKAKGQPREPQVYTLPPSREEMTDNQVSLTCLVKGFYPSDIAVEWESNGQPENNYKTTPPVLMSDGSFFLASKLTVDKSRWQQGNVFSCSVMHEALHNHYTQKSLSLSPG light 1: RIQMTQSPSSLSASVGDRVTITCSASSSVTYMYWYQDKPGKAPKLLIYDTSNLASGVPSRFSGSGSGTDYTFTISSLQPEDIATYYCQQWSSHIFTFGQGTKVEIKRTVAAPSVFIFPPSDKQLKSGTARVVCLLNNFYPREAKVQWKVDNALQSGNSQESVTEQDSKDSTYSLSSTLTLSKADYEKHKVYACEVTHQGLSSPVTKSFNRGEC heavy 2: QVQLVESGGGVVQPGRSLRLSCAASGFTFSGYGMHWVRYAPGKGLDWVAIIYYNGNNKYYADRVKGRFTISRDNSKNTLYLQMNSLRAEDTAVYYCARGGGYNWFDPWGRGTLVIVSSASTKGPSVFPLAPSSKSTSGGTAALGCLVKDYFPEPVTVSWNSGALTSGVHTFPAVLQSSGLYSLSSVVTVPSSSLGTQTYICNVNHKPSNTKVDKKVEPKSCDKTHTCPPCPAPEAAGGPSVFLFPPKPKDTLMISRTPEVTCVVVDVSHEDPEVKFNWYVDGVEVHNAKTKPREEQYNSTYRVVSVLTVLHQDWLNGKEYKCKVSNKALPAPIEKTISKAKGQPRRPRVYTLPPSREEMTKNQVSLVCLVKGFYPSDIAVEWESNGQPENNYKTTPPVLDSDGSFFLYSVLTVDKSRWQQGNVFSCSVMHEALHNHYTQKSLSLSPG light 2: not shown | 100 | 0.179 |
| GOMP001_bsAb_016 (bispecific antibody, human IgG1, kappa, L234A L235A) heavy 1: QVQLVESGGGVVQPGRSLRLSCAASGFTFSGYGMHWVRKAPGKGLDWVAIIYYNGNNKYYADEVKGRFTISRDNSKNTLYLQMNSLRAEDTAVYYCARGGGYNWFDPWGQGTLVIVSSASTKGPSVFPLAPSSKSTSGGTAALGCLVADYFPEPVTVSWNSGALTSGVHTFPAVLQSSGLYSLSSVVTVPSSSLGTQTYICNVNHKPSNTKVDEKVEPKSCDKTHTCPPCPAPEAAGGPSVFLFPPKPKDTLMISRTPEVTCVVVDVSHEDPEVKFNWYVDGVEVHNAKTKPREEQYNSTYRVVSVLTVLHQDWLNGKEYKCKVSNKALPAPIEKTISKAKGQPREPQVYTLPPSREEMTDNQVSLTCLVKGFYPSDIAVEWESNGQPENNYKTTPPVLMSDGSFFLASKLTVDKSRWQQGNVFSCSVMHEALHNHYTQKSLSLSPG light 1: RIQMTQSPSSLSASVGDRVTITCRPSQSISNYLNWYQDKPGKAPKLLIYAASSLQSGVPSRFSGSGSGTDFTLTISSLQPEDFATYYCQQSYSTPFTFGRGTRLEIKRTVAAPSVFIFPPSDKQLKSGTARVVCLLNNFYPREAKVQWKVDNALQSGNSQESVTEQDSKDSTYSLSSTLTLSKADYEKHKVYACEVTHQGLSSPVTKSFNRGEC heavy 2: QVQLVQSGAEVKKPGASVKVSCKASGYTFTSHWMHWVRYAPGQGLEWIGEFNPSNGRTNYNEKFKSKATMTVDTSTNTAYMELSSLRSEDTAVYYCASRDYDYDGRYFDYWGRGTLVTVSSASTKGPSVFPLAPSSKSTSGGTAALGCLVKDYFPEPVTVSWNSGALTSGVHTFPAVLQSSGLYSLSSVVTVPSSSLGTQTYICNVNHKPSNTKVDKKVEPKSCDKTHTCPPCPAPEAAGGPSVFLFPPKPKDTLMISRTPEVTCVVVDVSHEDPEVKFNWYVDGVEVHNAKTKPREEQYNSTYRVVSVLTVLHQDWLNGKEYKCKVSNKALPAPIEKTISKAKGQPRRPRVYTLPPSREEMTKNQVSLVCLVKGFYPSDIAVEWESNGQPENNYKTTPPVLDSDGSFFLYSVLTVDKSRWQQGNVFSCSVMHEALHNHYTQKSLSLSPG light 2: DIQMTQSPSSLSASVGDRVTITCSASSSVTYMYWYQRKPGDAPKLLIYDTSNLASGVPSRFSGSGSGTDYTFTISSLQPEDIATYYCQQWSSHIFTFGQGTKVEIKRTVAAPSVFIFPPSDEQLKSGTASVVCLLNNFYPREAKVQWKVDNALQSGNSQESVTEQDSKDSTYSLSSTLTLSKADYEKHKVYACEVTHQGLSSPVTKSFNRGEC | 92 | 0.0192 |
| GOMP001_bsAb_017 (bispecific antibody, human IgG1, kappa, L234A L235A) heavy 1: QVQLVQSGAEVKKPGASVKVSCKASGYTFTSHWMHWVRKAPGQGLEWIGEFNPSNGRTNYNEEFKSKATMTVDTSTNTAYMELSSLRSEDTAVYYCASRDYDYDGRYFDYWGQGTLVTVSSASTKGPSVFPLAPSSKSTSGGTAALGCLVADYFPEPVTVSWNSGALTSGVHTFPAVLQSSGLYSLSSVVTVPSSSLGTQTYICNVNHKPSNTKVDEKVEPKSCDKTHTCPPCPAPEAAGGPSVFLFPPKPKDTLMISRTPEVTCVVVDVSHEDPEVKFNWYVDGVEVHNAKTKPREEQYNSTYRVVSVLTVLHQDWLNGKEYKCKVSNKALPAPIEKTISKAKGQPREPQVYTLPPSREEMTDNQVSLTCLVKGFYPSDIAVEWESNGQPENNYKTTPPVLMSDGSFFLASKLTVDKSRWQQGNVFSCSVMHEALHNHYTQKSLSLSPG light 1: RIQMTQSPSSLSASVGDRVTITCSASSSVTYMYWYQDKPGKAPKLLIYDTSNLASGVPSRFSGSGSGTDYTFTISSLQPEDIATYYCQQWSSHIFTFGQGTKVEIKRTVAAPSVFIFPPSDKQLKSGTARVVCLLNNFYPREAKVQWKVDNALQSGNSQESVTEQDSKDSTYSLSSTLTLSKADYEKHKVYACEVTHQGLSSPVTKSFNRGEC heavy 2: EVQLVESGGDLVQPGRSLRLSCAASGFTFDDCVIHWVRYAPGKGLEWVSGITWNSGRIGYADRVKGRFTISRDNAKNSLYLQMNSLRVEDTALYYCAKEGNYDFWSTYYRGYFDLWGRGTLVTVSSASTKGPSVFPLAPSSKSTSGGTAALGCLVKDYFPEPVTVSWNSGALTSGVHTFPAVLQSSGLYSLSSVVTVPSSSLGTQTYICNVNHKPSNTKVDKKVEPKSCDKTHTCPPCPAPEAAGGPSVFLFPPKPKDTLMISRTPEVTCVVVDVSHEDPEVKFNWYVDGVEVHNAKTKPREEQYNSTYRVVSVLTVLHQDWLNGKEYKCKVSNKALPAPIEKTISKAKGQPRRPRVYTLPPSREEMTKNQVSLVCLVKGFYPSDIAVEWESNGQPENNYKTTPPVLDSDGSFFLYSVLTVDKSRWQQGNVFSCSVMHEALHNHYTQKSLSLSPG light 2: DIQMTQSPSSLSASVGDRVTITCRASQGIRNDLGWYQRKPGDAPKRLIYAASSLQGGVPLRFSGSGSGTEFTLTISSLQPEDFATYYCLQHNSYPYTFGQGTKLEIKRTVAAPSVFIFPPSDEQLKSGTASVVCLLNNFYPREAKVQWKVDNALQSGNSQESVTEQDSKDSTYSLSSTLTLSKADYEKHKVYACEVTHQGLSSPVTKSFNRGEC | 91.4 | 0.705 |
| GOMP001_bsAb_018 (bispecific antibody, human IgG1, kappa, L234A L235A) heavy 1: EVQLVESGGDLVQPGRSLRLSCAASGFTFDDCVIHWVRKAPGKGLEWVSGITWNSGRIGYADEVKGRFTISRDNAKNSLYLQMNSLRVEDTALYYCAKEGNYDFWSTYYRGYFDLWGRGTLVTVSSASTKGPSVFPLAPSSKSTSGGTAALGCLVADYFPEPVTVSWNSGALTSGVHTFPAVLQSSGLYSLSSVVTVPSSSLGTQTYICNVNHKPSNTKVDEKVEPKSCDKTHTCPPCPAPEAAGGPSVFLFPPKPKDTLMISRTPEVTCVVVDVSHEDPEVKFNWYVDGVEVHNAKTKPREEQYNSTYRVVSVLTVLHQDWLNGKEYKCKVSNKALPAPIEKTISKAKGQPREPQVYTLPPSREEMTDNQVSLTCLVKGFYPSDIAVEWESNGQPENNYKTTPPVLMSDGSFFLASKLTVDKSRWQQGNVFSCSVMHEALHNHYTQKSLSLSPG light 1: RIQMTQSPSSLSASVGDRVTITCRASQGIRNDLGWYQDKPGIAPKRLIYAASSLQGGVPLRFSGSGSGTEFTLTISSLQPEDFATYYCLQHNSYPYTFGQGTKLEIKRTVAAPSVFIFPPSDKQLKSGTARVVCLLNNFYPREAKVQWKVDNALQSGNSQESVTEQDSKDSTYSLSSTLTLSKADYEKHKVYACEVTHQGLSSPVTKSFNRGEC heavy 2: QVQLVQSGAEVKKPGASVKVSCKASGYTFTSHWMHWVRYAPGQGLEWIGEFNPSNGRTNYNEKFKSKATMTVDTSTNTAYMELSSLRSEDTAVYYCASRDYDYDGRYFDYWGRGTLVTVSSASTKGPSVFPLAPSSKSTSGGTAALGCLVKDYFPEPVTVSWNSGALTSGVHTFPAVLQSSGLYSLSSVVTVPSSSLGTQTYICNVNHKPSNTKVDKKVEPKSCDKTHTCPPCPAPEAAGGPSVFLFPPKPKDTLMISRTPEVTCVVVDVSHEDPEVKFNWYVDGVEVHNAKTKPREEQYNSTYRVVSVLTVLHQDWLNGKEYKCKVSNKALPAPIEKTISKAKGQPRRPRVYTLPPSREEMTKNQVSLVCLVKGFYPSDIAVEWESNGQPENNYKTTPPVLDSDGSFFLYSVLTVDKSRWQQGNVFSCSVMHEALHNHYTQKSLSLSPG light 2: DIQMTQSPSSLSASVGDRVTITCSASSSVTYMYWYQRKPGDAPKLLIYDTSNLASGVPSRFSGSGSGTDYTFTISSLQPEDIATYYCQQWSSHIFTFGQGTKVEIKRTVAAPSVFIFPPSDEQLKSGTASVVCLLNNFYPREAKVQWKVDNALQSGNSQESVTEQDSKDSTYSLSSTLTLSKADYEKHKVYACEVTHQGLSSPVTKSFNRGEC | 97.3 | 0.111 |
